Paper PMC8566583
“And” between values parts separate entries of the source, which are not always exact repeats. Equal entries are not always repeated.

B1: histone PARylation factor 1 (HPF1), recombinant human (natural protein)
chain: MVGGGGKRRPGGEGPQCEKTTDVKKSKFCEADVSSDLRKEVENHYKLSLPEDFYHFWKFCEELDPEKPSDSLSASLGLQLVGPYDILAGKHKTKKKSTGLNFNLHWRFYYDPPEFQTIIIGDNKTQYHMGYFRDSPDEFPVYVGINEAKKNCIIVPNGDNVFAAVKLFLTKKLREITDKKKINLLKNIDEKLTEAARELGYSLEQRTVKMKQRDKKVVTKTFHGAGLVVPVDKNDVGYRELPETDADLKRICKTIVEAASDEERLKAFAPIQEMMTFVQFANDECDYGMGLELGMDLFCYGSHYFHKVAGQLLPLAYNLLKRNLFAEIIEEHLANRSQENIDQLAA

Key:
PARP2 (Homo sapiens) = PARP2 (Homo sapiens) (UniProt Q9UGN5); conditions: cited from earlier work
Chain of UniProt Q9UGN5 (Q9UGN5 whole entry): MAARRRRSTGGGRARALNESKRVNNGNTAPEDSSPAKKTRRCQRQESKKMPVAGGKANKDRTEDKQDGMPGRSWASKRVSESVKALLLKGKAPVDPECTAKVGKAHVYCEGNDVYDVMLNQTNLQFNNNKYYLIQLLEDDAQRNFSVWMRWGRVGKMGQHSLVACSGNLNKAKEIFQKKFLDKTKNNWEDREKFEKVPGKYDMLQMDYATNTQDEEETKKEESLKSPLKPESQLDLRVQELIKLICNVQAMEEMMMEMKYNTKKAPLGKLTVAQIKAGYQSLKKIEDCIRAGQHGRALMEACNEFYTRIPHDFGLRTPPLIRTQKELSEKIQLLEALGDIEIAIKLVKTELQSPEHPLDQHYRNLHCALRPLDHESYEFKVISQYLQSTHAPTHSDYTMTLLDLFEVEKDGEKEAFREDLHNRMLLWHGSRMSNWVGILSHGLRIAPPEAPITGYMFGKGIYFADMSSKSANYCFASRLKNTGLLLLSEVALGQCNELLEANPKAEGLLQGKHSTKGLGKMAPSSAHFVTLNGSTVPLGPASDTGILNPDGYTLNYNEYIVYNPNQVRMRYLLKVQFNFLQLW

PARP1 (Homo sapiens) = PARP1 (Homo sapiens) (UniProt P09874); conditions: cited from earlier work
[1] = target: Recombinant wild-type murine PARP2 (murine) (UniProt O88554)
Chain of UniProt O88554 (O88554 whole entry): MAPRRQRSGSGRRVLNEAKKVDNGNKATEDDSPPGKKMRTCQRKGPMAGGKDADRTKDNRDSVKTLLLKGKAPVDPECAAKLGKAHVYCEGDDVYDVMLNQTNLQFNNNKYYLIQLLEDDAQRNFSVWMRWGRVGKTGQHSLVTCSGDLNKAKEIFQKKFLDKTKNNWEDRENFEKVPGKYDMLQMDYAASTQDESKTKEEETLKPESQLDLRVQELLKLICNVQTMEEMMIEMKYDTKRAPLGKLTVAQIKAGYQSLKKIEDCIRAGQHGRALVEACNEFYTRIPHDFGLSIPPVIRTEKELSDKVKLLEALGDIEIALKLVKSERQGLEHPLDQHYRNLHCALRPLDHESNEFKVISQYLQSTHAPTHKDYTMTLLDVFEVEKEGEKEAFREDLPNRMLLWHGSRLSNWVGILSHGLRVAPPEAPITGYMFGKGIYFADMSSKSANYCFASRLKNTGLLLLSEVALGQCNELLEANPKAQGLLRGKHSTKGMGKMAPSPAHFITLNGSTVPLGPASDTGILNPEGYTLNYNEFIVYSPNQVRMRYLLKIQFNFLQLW

[2] = target: Recombinant wild-type human PARP1 (human) (UniProt P09874)

Row | Molecule | Kd (PARP2 (Homo sapiens)) [nM] | Kd (PARP1 (Homo sapiens)) | DNA-independent autoPARylation level of PARP2 (500 nM, 1 uM [32P]NAD+, no DNA or NCP) with HPF1 from 60 nM to 16 uM, relative to no HPF1; maximal effect (at a 4-fold excess of HPF1) [1] [fold] | DNA-independent autoPARylation level of PARP1 (500 nM, 1 uM [32P]NAD+, no DNA or NCP) with HPF1 from 60 nM to 16 uM, relative to no HPF1; maximal effect [2] [fold]
1 | HPF1 (from UniProt Q9NWY4) | 280 | > 3000 nM and 790 nM |  | 
2 | B1 |  |  | 2.4 | 1.6
